Results taken from US20250382334.

Legend:
[1] = molecular target: v2.2 BE-VLP MMLV gag-ABE8e fusion protein (cleavable linker VQALVLTQ)
[2] = molecular target: v2.3 BE-VLP MMLV gag-ABE8e fusion protein (cleavable linker […])
[3] = molecular target: v2.4 BE-VLP MMLV gag-ABE8e fusion protein (cleavable linker […])
[4] = molecular target: v2.1 BE-VLP MMLV gag-ABE8e fusion protein (cleavable linker …)

B1: Moloney murine leukemia virus (MMLV) protease, supplied as wild-type MMLV gag-pro-pol polyprotein (protein)
chain: TLDDQGGQGQEPPPEPRITLKVGGQPVTFLVDTGAQHSVLTQNPGPLSDKSAWVQGATGGKRYRWTTDRKVHLATGKVTHSFLHVPDCPYPLLGRDLLTKLKAQIHFEGSGAQVMGPMGQPLQVL
[1]
  fraction of cleaved ABE8e versus full-length gag-ABE8e present in purified eVLPs (western blot): the v2.4 linker is cleaved more efficiently than the v2.1 and v2.2 linkers, but less efficiently than the v2.3 linker
[2]
  fraction of cleaved ABE8e versus full-length gag-ABE8e present in purified eVLPs (western blot): the v2.4 linker is cleaved more efficiently than the v2.1 and v2.2 linkers, but less efficiently than the v2.3 linker
[3]
  fraction of cleaved ABE8e versus full-length gag-ABE8e present in purified eVLPs (western blot): the v2.4 linker is cleaved more efficiently than the v2.1 and v2.2 linkers, but less efficiently than the v2.3 linker
[4]
  fraction of cleaved ABE8e versus full-length gag-ABE8e present in purified eVLPs (western blot): the v2.4 linker is cleaved more efficiently than the v2.1 and v2.2 linkers, but less efficiently than the v2.3 linker
